Assay results reported in patent US20180230218A1.

How the values were obtained:
[1] = target: human cMET (MET, c-Met, HGF receptor) on cells (human) (UniProt P08581); assay: cell-based or functional assay
[2] = target: human cMET (MET, c-Met, HGF receptor) on cells (human) (UniProt P08581); assay: flow cytometry, inhibition of HGF (50 ng/mL) binding to BxPC3 cells
[3] = target: human cMET (MET, c-Met, HGF receptor) on cells (human) (UniProt P08581); assay: flow cytometry, inhibition of HGF (50 ng/mL) binding to MKN45 cells

human cMET (MET, c-Met, HGF receptor) on cells (human), sequence (P08581 25-1390): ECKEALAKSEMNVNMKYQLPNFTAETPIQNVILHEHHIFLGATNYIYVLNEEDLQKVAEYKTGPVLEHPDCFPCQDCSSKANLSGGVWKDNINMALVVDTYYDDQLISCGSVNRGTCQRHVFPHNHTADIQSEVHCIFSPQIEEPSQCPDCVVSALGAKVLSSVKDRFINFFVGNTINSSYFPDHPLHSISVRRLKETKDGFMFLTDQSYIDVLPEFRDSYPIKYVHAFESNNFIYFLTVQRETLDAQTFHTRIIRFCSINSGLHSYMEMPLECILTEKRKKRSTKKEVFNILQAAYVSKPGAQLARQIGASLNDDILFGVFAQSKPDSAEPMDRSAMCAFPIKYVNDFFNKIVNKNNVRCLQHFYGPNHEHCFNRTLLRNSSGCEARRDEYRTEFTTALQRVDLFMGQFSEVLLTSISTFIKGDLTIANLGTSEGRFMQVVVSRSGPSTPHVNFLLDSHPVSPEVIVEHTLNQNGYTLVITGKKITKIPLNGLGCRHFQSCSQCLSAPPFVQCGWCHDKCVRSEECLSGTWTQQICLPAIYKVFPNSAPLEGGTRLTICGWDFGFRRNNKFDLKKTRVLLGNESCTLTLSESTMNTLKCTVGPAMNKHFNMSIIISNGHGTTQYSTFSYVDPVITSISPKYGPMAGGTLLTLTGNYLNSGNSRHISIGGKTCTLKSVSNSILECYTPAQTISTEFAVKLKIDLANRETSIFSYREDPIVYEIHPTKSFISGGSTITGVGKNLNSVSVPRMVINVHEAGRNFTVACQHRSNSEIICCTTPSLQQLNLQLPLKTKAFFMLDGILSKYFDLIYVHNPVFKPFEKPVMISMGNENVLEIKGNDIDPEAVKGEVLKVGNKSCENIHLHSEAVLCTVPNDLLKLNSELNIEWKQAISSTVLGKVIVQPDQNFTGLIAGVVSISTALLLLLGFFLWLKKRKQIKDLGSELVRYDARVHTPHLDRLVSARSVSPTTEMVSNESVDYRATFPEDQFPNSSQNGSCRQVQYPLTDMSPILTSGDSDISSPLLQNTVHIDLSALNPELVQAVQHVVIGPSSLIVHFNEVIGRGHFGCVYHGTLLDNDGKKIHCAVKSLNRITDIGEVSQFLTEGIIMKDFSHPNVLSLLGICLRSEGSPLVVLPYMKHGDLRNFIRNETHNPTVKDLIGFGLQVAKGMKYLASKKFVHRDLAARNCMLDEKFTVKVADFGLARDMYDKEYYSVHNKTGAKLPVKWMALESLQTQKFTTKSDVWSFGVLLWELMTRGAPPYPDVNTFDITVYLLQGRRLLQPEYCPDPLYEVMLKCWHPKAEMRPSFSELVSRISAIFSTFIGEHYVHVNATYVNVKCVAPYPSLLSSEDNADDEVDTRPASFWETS

Q: With huIgG-SMCC-DM1 (antibody) as the substance, how does the in vitro cytotoxicity in MET-expressing MKN45 cells, EC50 [1] read?
A: > 30 nM

Q: Which percent induction of NCI-H441 cell growth (WST-8), normalised to 100 ng/mL HGF [1] does the source give for 5D5 (antibody) here?
A: 92%

Q: With 224G11 (antibody) as the substance, how does the % inhibition of HGF binding [2] read?
A: 50%

Q: And the % inhibition of HGF binding [3]?
A: 67%
